{"source": "paper PMC10896696", "about": "(The Journal of Cell Biology, 2024)", "biological_target": "MBP-tag-fused HER2 intracellular domain (ICD, 712 aa-1255 aa) (human, UniProt P04626 712-1255)", "assay": "SPR"}
{"binder": "MBP-tag-fused intracellular domain (ICD) of WT TβRI (148 aa-503 aa) (domain or fragment, human, UniProt P36897 148-503, looked up) CHNRTVIHHRVPNEEDPSLDRPFISEGTTLKDLIYDMTTSGSGSGLPLLVQRTIARTIVLQESIGKGRFGEVWRGKWRGEEVAVKIFSSREERSWFREAEIYQTVMLRHENILGFIAADNKDNGTWTQLWLVSDYHEHGSLFDYLNRYTVTVEGMIKLALSTASGLAHLHMEIVGTQGKPAIAHRDLKSKNILVKKNGTCCIADLGLAVRHDSATDTIDIAPNHRVGTKRYMAPEVLDDSINMKHFESFKRADIYAMGLVFWEIARRCSIGGIHEDYQLPYYDLVPSDPSVEEMRKVVCEQKLRPNIPNRWQSCEALRVMAKIMRECWYANGAARLTALRIKKTLSQLSQQEGIKM", "values": [{"measurement": "Kd", "value": 4.24, "unit": "nM"}]}
{"binder": "MBP-tag-fused intracellular domain (ICD) of activated (GGD) TβRI (148 aa-503 aa) (domain or fragment, human, UniProt P36897 148-503, looked up) CHNRTVIHHRVPNEEDPSLDRPFISEGTTLKDLIYDMTTSGSGSGGGLLVQRTIARDIVLQESIGKGRFGEVWRGKWRGEEVAVKIFSSREERSWFREAEIYQTVMLRHENILGFIAADNKDNGTWTQLWLVSDYHEHGSLFDYLNRYTVTVEGMIKLALSTASGLAHLHMEIVGTQGKPAIAHRDLKSKNILVKKNGTCCIADLGLAVRHDSATDTIDIAPNHRVGTKRYMAPEVLDDSINMKHFESFKRADIYAMGLVFWEIARRCSIGGIHEDYQLPYYDLVPSDPSVEEMRKVVCEQKLRPNIPNRWQSCEALRVMAKIMRECWYANGAARLTALRIKKTLSQLSQQEGIKM", "values": [{"measurement": "Kd", "value": 2.68, "unit": "nM"}]}
